Measurements taken from the supplement of paper PMC9112550, “Optimization of the antimicrobial peptide Bac7 by deep mutational scanning” (BMC Biology, 2022).

Test system: Escherichia coli TOP10
Assay: shrunken log2 fold change of peptide-encoding DNA abundance (4.5 h post-induction vs induction); higher = less antimicrobial activity (less host growth inhibition)
Conditions: time post-induction: 4.5 h; library: site-saturation at positions 5, 18, 19, 20
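Also: peptides expressed intracellularly from a pBAD plasmid library in pooled LB shake-flask culture, induced with 0.3% L-arabinose, DNA abundance read by NGS, three biological replicates, DESeq2 with apeglm shrinkage.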

Row | Sequence | shrunken log2 fold change
1 | RRIRMRPPRLPRPRPRPHAPPRP | 0.469
2 | RRIRGRPPRLPRPRPRPGKEPRP | 0.225
3 | RRIRERPPRLPRPRPRPQGTPRP | 0.0468
4 | RRIRYRPPRLPRPRPRPFPSPRP | -0.0392
5 | RRIRKRPPRLPRPRPRPAPQPRP | 0.937
6 | RRIRFRPPRLPRPRPRPEMDPRP | -0.00136
7 | RRIRSRPPRLPRPRPRPPNRPRP | 0.238
8 | RRIRFRPPRLPRPRPRPRDWPRP | 0.308
9 | RRIRTRPPRLPRPRPRPCTGPRP | -0.0103
10 | RRIRYRPPRLPRPRPRPKAFPRP | 0.0171
11 | RRIRVRPPRLPRPRPRPFNPPRP | -0.484
12 | RRIRRRPPRLPRPRPRPCPAPRP | 0.392
13 | RRIRCRPPRLPRPRPRPCAMPRP | -0.103
14 | RRIRHRPPRLPRPRPRPCFMPRP | -0.404
15 | RRIRKRPPRLPRPRPRPLVFPRP | -0.0076
16 | RRIRHRPPRLPRPRPRPFWAPRP | 0.245
17 | RRIRERPPRLPRPRPRPRTFPRP | -0.0471
18 | RRIRARPPRLPRPRPRPSVRPRP | -0.0488
19 | RRIRFRPPRLPRPRPRPYEEPRP | -0.221
20 | RRIRSRPPRLPRPRPRPENGPRP | 0.0751

Row | Sequence | shrunken log2 fold change
21 | RRIRSRPPRLPRPRPRPKFCPRP | -0.471
22 | RRIRWRPPRLPRPRPRPFSGPRP | 0.0272
23 | RRIRDRPPRLPRPRPRPDYGPRP | -0.181
24 | RRIRRRPPRLPRPRPRPLVHPRP | 0.223
25 | RRIRWRPPRLPRPRPRPRSLPRP | -0.115
26 | RRIRDRPPRLPRPRPRPKLMPRP | -0.146
27 | RRIRKRPPRLPRPRPRPHCIPRP | -0.165
28 | RRIRQRPPRLPRPRPRPNPWPRP | 0.0932
29 | RRIRKRPPRLPRPRPRPRTLPRP | 0.454
30 | RRIRCRPPRLPRPRPRPFWDPRP | 0.00555
31 | RRIRRRPPRLPRPRPRPWWHPRP | 0.0484
32 | RRIRIRPPRLPRPRPRPWVDPRP | 0.0772
33 | RRIRNRPPRLPRPRPRPKTLPRP | -0.134
34 | RRIRDRPPRLPRPRPRPMGNPRP | -0.107
35 | RRIRSRPPRLPRPRPRPWFKPRP | -0.504
36 | RRIRERPPRLPRPRPRPYRVPRP | -0.236
37 | RRIRIRPPRLPRPRPRPEMRPRP | -0.0182
38 | RRIRDRPPRLPRPRPRPNHCPRP | 0.0177
39 | RRIRDRPPRLPRPRPRPKCRPRP | -0.00674
40 | RRIRHRPPRLPRPRPRPPPGPRP | 0.769

Row | Sequence | shrunken log2 fold change
41 | RRIRERPPRLPRPRPRPPNLPRP | 0.0423
42 | RRIRWRPPRLPRPRPRPQGEPRP | 0.29
43 | RRIRPRPPRLPRPRPRPMEMPRP | -0.0174
44 | RRIRLRPPRLPRPRPRPIKNPRP | -0.317
45 | RRIRPRPPRLPRPRPRPYRDPRP | 0.0239
46 | RRIRARPPRLPRPRPRPYASPRP | -0.245
47 | RRIRPRPPRLPRPRPRPSSHPRP | -0.417
48 | RRIRFRPPRLPRPRPRPTYFPRP | -0.175
49 | RRIRMRPPRLPRPRPRPMPPPRP | 1.07
50 | RRIRIRPPRLPRPRPRPKTIPRP | -0.25
51 | RRIRSRPPRLPRPRPRPINQPRP | -0.657
52 | RRIRKRPPRLPRPRPRPFGCPRP | 0.0495
53 | RRIRWRPPRLPRPRPRPHLFPRP | 0.0795
54 | RRIRQRPPRLPRPRPRPVTRPRP | 0.0193
55 | RRIRARPPRLPRPRPRPFPNPRP | -0.221
56 | RRIRKRPPRLPRPRPRPVDMPRP | -0.122
57 | RRIRNRPPRLPRPRPRPLWQPRP | -0.303
58 | RRIRPRPPRLPRPRPRPWVMPRP | 0.211
59 | RRIRWRPPRLPRPRPRPSKLPRP | -0.315
60 | RRIRERPPRLPRPRPRPNPSPRP | -0.162
